Here are results for 22 molecules from patent US20230374114A1 (Dana-Farber, published 2023).

By Kd is commonly meant the equilibrium constant for the complex coming apart.

Sequences and labels used below:
B1: Ab_17 (scFv, V domains shown)
VH: QVQLVQSGGGVVQPGRSLRLSCAASGFTFDDYAMHWVRQVPGKGLEWVSGIDWNSGVIGYADSVKGRFTISRDNVKNSLYLQMNSLRTEDSALYYCAKDIGPGGSGSYYAFDIWGQGTTVTVSS
VL: QSALTQPASVSGSPGQSITISCTGTSSDVGGSKYVSWYQQHPGKAPKVMIYDVTKRPSGVPDRFSGSKSGNTASLTISGLQAEDEADYYCAAWDDSLNGVVFGGGTKLTVL
B2: Ab 27 (scFv, V domains shown)
VH: QVQLVQSGTEVKKPGASVKVSCKASGYSFTGSHLHWVRQAPGQGLEWMGWINPDSGVINYAQKFQGRVTLTRDTSISTAYMELSGLRSDDTAVYYCARDKAIGYVWALDYWGQGTLVTVSS
VL: QSALTQPPSVSGSPGQSVTISCTGTSSDVGTYNRVSWYQQPPGKAPKLMIYEVSNRPSGVSNRFSGSKSGNTASLTISGLQAEDEADYYCSSYTRTFTYVFGTGTKVTVL
B3: Ab_18 (scFv, V domains shown)
VH: EVQLVQSGGGVVQPGRSLRVSCAASGFSFSRYGMHWVRQAPGKGLEWVAFIRHDGSKKYYADSVEGRFTISRDNSRNTVSLEMNSLRGEDTAVYYCAKDGRLEAALDDWGQGTLVTVSS
VL: NFMLTQPHSMSGSAGKTVTVSCIRSSGSIANNFVQWYQQRPGSAPTTVIYEDNQRPSGVPDRFSGSIDSSSNSASLTISGLKTEDEADYYCQSYDSSNLVFGGGTRLTVL
B4: Ab_19 (scFv, V domains shown)
VH: EVQLVESGAEVKKPGESLKISCKGSGYSFTSYWIGWVRQMPGKGLEWMGIIYPGDSDTRYSPSFQGQVTISADKSISTAYLQWSSLKASDTAMYYCARRGDLDAFDIWGQGTMVTVSS
VL: QPGLTQPPAASGTPGQRVTVSCSGASANIGSNAVSWFKQFPETAPRLLISGNTHRPSGVPDRVSGSKSGTSASLTISGLQSDDEADYYCAAWDDSLNGYVFGSGTKVTVL
B5: Ab 23 (scFv, V domains shown)
VH: EVQLVQSGAEVKKPGSSVKVSCRSSGGTFSTYGITWVRQAPGQGLEWMGRIIPSLGIPNYAQKFQGRVTITADTSVSTAWMELSSLESDDTAIYYCARENIDLATNDFWGQGTLVTVSS
VL: QSALTQPPSASGSPGQSVTISCTGTSRDIGAYGYVSWYQQVPGKAPKLIIYEVRNRPSGVSSRFSGSKSGNTASLTISGLQAEDEADYYCSSYTSSSTLDVVFGGGTKLTVL
B6: Ab 21 (scFv, V domains shown)
VH: QVQLVQSGGGLVQPGGSLRLSCATSGFTFDDYAMHWVRQAPGKGLEWVSGISWNSGSIGYVDSVKGRFTISRDNRNNKVYLQMNNLRAEDTAVYYCARDWWGSIDHWGLGTLVTVSS
VL: QSALTQPRSVSGSPGQSVTISCTGTSSDVGGYDYVSWYQQHPGKAPKLIIYDVSKRPSGVPDRFSGSKSGNTASLTVSGLQAEDEADYYCSSYTSSSPVVFGGGTKLTVL
B7: RBD-R3-T1-H3 (Ab_2) (scFv, V domains shown)
VH: EVQLVQSGAEVKKPGSSVKVSCKTSGYTFTTSGISWVRQAPGQGLEWMGWISAYNGNTNYAQKLQGRVTMTTDTSTSTAYMELRSLRSDDTAVYYCARDFHLYYGMDVWGKGTLVTVSS
VL: QSALTQPPSASGSPGQSVTISCTGTSSDVGAYNYVSWYQQHPGKAPKLLIYDVTKRPPGVPDRFSGSKSGNTASLTVSGLQAEDEADYYCAVWDDGLNGRVVFGGGTKLTVL
B8: Ab 20 (scFv, V domains shown)
VH: QVQLVQSGGGSVKPGGSLRLSCAASGYRLSDYYMHWVRQAPGKGLEWVANIKQDGSEKYYVDSVKGRFTISRDNAKNSLYLQMNSLRAEDTAVYYCARVRGWSRGYFDYWGQGTLVTVSS
VL: NFMLTQPHSVSESPGKTVTISCTGSSGSIASNYVQWYQQRPGSAPTTVIYEDNQRPSGVPDRFSGSIDSSSNSASLLISGLKTEDEADYYCQSYDSSNHWVFGGGTKLTVL
B9: S1-RBD-R3-T1-B12 Ab (Ab_31) (scFv, V domains shown)
VH: QVQLVQSGAEVKKPGSSVKVSCKASGGTFSSYTISWVRQAPGQGLEWMGGIIPILGTPNYAQKFQDRVAITADKSTSTAYMELSSLRSEDTAVYYCAVGSGWYSGFDYWGQGTLVTVSS
VL: NFMLTQPHSVSESPGKTVTISCTGSSGSIASNYVQWYQQRPGSAPTTVIYEDSQRPSGVPDRFSGSIDSSSNSASLTISGLKTEDEADYYCQSFHNSNPVIFGGGTKLTVL
B10: S1-RBD-R3-T1-F5 (Ab2-7) (scFv, V domains shown)
VH: QVTLKESGPTRVKPTQTLTLTCTFSGFSLSTTGVGVGWIRQPPGKALEWLALIYWNDDKRYSPSLKSRLTITKDTSKNQVVLTMTNMDPVDTATYYCARISGSGYFYPFDIWGQGTTVTVSS
VL: NFMLTQPHSVSESPGKTVTISCTRSSGSIASNYVQWYQQRPGSSPTTVIYEDNQRPSGVPDRFSGSIDSSSNSASLTISGLKAEDEADYYCQSYDSSSLWVFGGGTKLTVL
B11: Ab 28 (scFv, V domains shown)
VH: QVTLKESGPGLVNPSETLSLTCTVSGASISNSFWSWIRQSPGKGLEWIGYTSYSGNSIYNPSLKSRLTMSIDTSKNQLSLNLRSLTAADTAVYYCARREWIKGHFDYWGQGTLVTVSS
VL: NFMLTQPHSVSESPGKTVTISCTGSGGSIASNYVQWYQQRPGSAPTTVIYEDNQRPSGVPDRFSGSIDSSSNSASLTISGLKTEDEADYYCQSYDSSNPVVFGGGTKLTVL
B12: Ab 25 (scFv, V domains shown)
VH: QVQLVQSGGGLVQPGGSLRLSCAASGFTFSSYWMSWVRQAPGKGLEWVANIKQDGSEKYYVDSVKGRFTISRDNAKNSLYLQMNSLRAEDTAVYYCARGFYYYGAFDIWGQGTTVTVSS
VL: NFMLTQPHSVSESPGKTVTISCTGSSGSIASNYVQWYQQRPGSAPTTVIYEDNQRPSGVPDRFSGSIGSSSNSASLTISGLKTEDEADYYCQSYDSSNHWVFGGGTKLTVL
B13: Ab_13 (scFv, V domains shown)
VH: QVTLKESGPKLVKPTQTLTLTCTFSGFSLSTSGVGVGWIRQPPGKALEWLALIYWDDDKRYSPSLKSRLTIAKDTSKYQVVLTMTNMDPVDTATYYCARISGSGYFYPFDIWGQGTMVTVSA
VL: NFMLTQPHSVSESPGKTVTISCTRSSGSIASNYVQWYQQRPGSAPTTVIYEDNQRPSGVPDRFSGSIDSSSNSASLTISGLKTEDEADYYCQSYDSSNLWVFGGGTKLTVL
B14: RBD-R3-E1-A5 Ab (Ab_30) (scFv, V domains shown)
VH: QVQLVQSGGGVVQPGKSLRLSCTASGFTFSDFPIHWVRQAPGKGLEWVGVISYDGNIKYYGDSVKGRFTISRDNAKNSLYLQMNSLRVEDTAVYYCARGGSSFDIWGQGTTVTVSS
VL: SYELTQPPSVSEAPRQRVTISCSGSTSNIGNNAVSWYQHLPGKAPKLLIYYNERLPSGVSDRFSGSKSGTSASLAISGLRSEDEADYYCAAWDDSLSGHVVFGGGTKLTVL
B15: Ab_14 (scFv, V domains shown)
VH: QVQLQQSGPGLVKPSQTLSLTCAISGDSVSSNSAAWNWIRQSPARGLEWLGRTYYRSRWYNDYAISMKSRITINPDTSKNQFSLQLESVTPEDTAVYYCAREIRGFDYWGQGTLVTVSS
VL: QSVLTQPPSASGSPGQSVTISCTGTSSDVGAYNFVSWYQHHPGKAPKLIIYDFNKRPSGVPDRFSGSKSGNTASLTVSGLQADDEADYYCSSYAGSNNFDVVFGGGTKLTVL
B16: Ab_16 (scFv, V domains shown)
VH: QVQLVQSGGGVVQPGRSLRLSCAASGFTFSNYGMHWVRQAPGKGLEWVALIWERGSKKDYADSVKGRFTVSRDNSKNTLYLQMNSLRPEDTAVYFCAREGISMTGAEYFQHWGQGTLVTVSS
VL: QSVLTQPPSVSGSPGQRVTMSCTGSSSNIGAGYDVHWYQQVPGAAPRLLIYGTNNRPSGVPDRFSGSKSGTSASLTITGLQAEDEADYYCQSYDNSLTDPYVFGTGTKVTVL
B17: RBD-R3-E1-B3 Ab (Ab_32) (scFv, V domains shown)
VH: QVQLVQSGAEVKKPGESLKISCKGSGYSFTSYWIGWVRQMPGKGLEWMGIIYPGDSDTRYSPSFQGQVTISADKSISTAYLQWSSLKASDTAMYYCARGWQWHDYWGQGTLVTVSS
VL: QTVVTQEPAVSVALGQTVRITCQGDSLRSYYASWYQQKPGQAPVLVVYDKDKRPSGIPDRFSGSTSGNTASLTITGAQAEDEADYYCNSRDRSDNHVVFGGGTKLTVL
B18: Ab 26 (scFv, V domains shown)
VH: QVQLVQSGGGLVQPGRSLRLSCAASGFTFDDYAMHWVRQVPGKGLEWVSGIDWNSGVIGYADSVKGRFTISRDNAKNSLYLQMNSLRAEDTALYYCAKDAYSYGFLGAFDIWGQGTMVTVSS
VL: LPVLTQPPSVSVAPGQTASITCGGDNIRTKGVHWYQQKPGQAPLLVIYYASDRPSGIPERFSGSSSGNTATLTISRVEAGDEADYYCQVWDSSSDLVVFGGGTTLTVL
B19: S1-RBD-R3-T1-E2 (Ab7) (scFv, V domains shown)
VH: QVQLVQSGGGLVQPGRSLRLSCAASGFTFDDYAMHWVRQVPGKGLEWVSGIDWNSGVIGYADSVKGRFTISRDNAKNSLYLQMNSLRAEDTALYYCAKDAYSYGFLGAFDIWGQGTMVTVSS
VL: QPGLTQPPSVSVAPGQTARISCGGNNIGSKSVHWYQQKPGRAPVLVVYEDRGRPSGIPERFSGSNSGNTATLTVSRVEAGDEADYYCQVWDGDSDHYVFATGTKVSIL
B20: S1-RBD-R3-T1-C7 Ab (Ab 29) (scFv, V domains shown)
VH: QVQLQQSGPGLVKPSQTLSLTCAISGDSVSSYSDAWNWIRQSPSRGLEWLGRTYYRSKWYNDYAVSVKSRITINPDTSKNQFSLQLSSVTPEDTAVYYCAREIVATTPFRNYYYGMDVWGQGTTVTVSS
VL: NFMLTQPHSVSESPGNTVTISCTRTSGSIASNYVQWYQQRPGSSPTTVIFQDKLRPSGVPDRFSGSIDSSSNSASLTISGLKTEDEADYYCQSYDSSSLWVFGGGTKLTVL
B21: S1-RBD-R3-T1-D7 Ab (Ab_34) (scFv, V domains shown)
VH: QVQLVQSGVEVKKPGESLKISCKGSGYSFTSYWIGWVRQMPGKGLEWMGIIYPGDSDTRYSPSFQGQVTISADKSISTAYLQWSSLKASDTAMYYCARTTYSYGSFDYWGQGTLVTVSS
VL: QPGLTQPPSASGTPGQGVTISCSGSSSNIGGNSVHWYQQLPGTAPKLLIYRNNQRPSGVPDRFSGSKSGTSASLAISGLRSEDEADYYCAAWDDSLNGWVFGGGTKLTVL
B22: S1-R3-T1-C4 (Ab_8) (scFv, V domains shown)
VH: QVQLVQSGAEVKKPGSSVKVSCKASGGTFSSYAISWLRQAPGQGLEWMGWINPNSGGTNYAQKFQGRVTMTRDTSISTAYMELSRLRSDDTAVYYCARGSGGYYLGWGQGTLVTVSS
VL: QPGLTQPPSVSKGLRQTATLTCTGNSNNVGNQGAAWLQQHQGHPPKLLSYMNNNRPPGISERFSASRSGNTASLTITGLQPEDEADYYCSAWDSSLSRWVFGGGTKLSVL

In this experiment the target is WT Spike (SARS-CoV-2, UniProt P0DTC2 16-1213).
The molecule B1 showed a Kd of 6.35 pM.

The molecule B2 came in with a Kd of 8.78 pM.

B3: the affinity, expressed as Kd, was 9.07 pM.

Consider B4, for which the affinity, expressed as Kd, was 8.9 pM.

In turn, B5 came in with a Kd of 8.84 pM.

B6 yielded a Kd of 9.25 pM. This Kd and that of the molecule before are within 1.5-fold of each other.

For B7, the Kd worked out at 199 pM.

B8: the Kd was 9.01 pM.

Take B9: the Kd is less than 1 pM.

For the molecule B10, binding was put at a Kd of 7.85 pM. This counts as picomolar.

In turn, B11 yielded a Kd of 8.9 pM.

B12 yielded a Kd of 8.9 pM. This counts as picomolar.

Consider B13, for which binding was put at a Kd of 8.55 pM.

On to B14, for which the affinity, expressed as Kd, was 1.02 pM.

As for B15, the Kd is 8.22 pM.

The molecule B16 registered a Kd of 11.8 pM.

B17 yielded a Kd of 6.32 pM.

The molecule B18 had a Kd of 11 pM.

B19 gave a Kd of 7 pM.

For B20, the affinity, expressed as Kd, was 149 pM.

Molecule B21 came in with a Kd of 6.58 pM.

B22 gave a Kd of 7.15 pM.
